According to paper PMC10370356, “Molecular dissection studies of TAC1, a transcription activator of Candida drug resistance genes of the human pathogenic fungus Candida albicans” (Frontiers in Microbiology, 2023):

Molecular target: T1, His-tagged C. albicans TATA box Binding Protein (TBP) (C. albicans, UniProt O43133 1-238)
T1 construct: Vector pET28a; fusion protein said to be 30 kDa; also called TBP1; TBP-pET28a; source: E. coli BL21 (DE3), purified (Ni-NTA)
T1 sequence: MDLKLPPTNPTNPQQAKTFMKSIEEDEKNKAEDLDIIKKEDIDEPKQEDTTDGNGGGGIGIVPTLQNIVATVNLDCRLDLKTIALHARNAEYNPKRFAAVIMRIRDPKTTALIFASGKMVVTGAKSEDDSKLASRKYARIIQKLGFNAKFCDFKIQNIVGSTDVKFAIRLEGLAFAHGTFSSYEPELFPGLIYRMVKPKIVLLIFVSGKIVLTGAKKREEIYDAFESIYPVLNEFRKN
Test: pull-down; GST-AAD and His-TBP incubated with Glutathione Sepharose 4B beads, 3 h, 4 C, 20 mM HEPES pH 7.5, 200 mM NaCl, 0.1 mM EDTA, 10% glycerol, 0.1% NP-40; washes with 500 mM NaCl; eluted with 10 mM reduced glutathione; immunoblot with anti-GST and anti-His
Conditions: both partners purified

B1: GST-tagged Acidic Activation Domain (AAD) of Tac1p (domain or fragment)
chain: MNPSPTITNNTYNSNINTGSNSTGEPQVCYAQSPSYNASLSNIINNESTGRSPATSTSINQSMMNENYDLFNDYLIDNSAVNLPFSQFNNLPNFFFDNNLGI
notes: amplified from genomic DNA of strain SC5314; Vector pGEX-KG; fusion protein said to be 33 kDa; several closely spaced bands (degradation) on the anti-GST blot; The introduction gives other limits for the AAD (nucleotides 1354-2946); also called Tac1-AAD; TAC1-AAD; source: E. coli BL21 (DE3), purified (Glutathione Sepharose 4B)
B1: binds.
